Experimental data: patent publication US20220112296A1 (Chugai, published 2022)
Positions count from the first letter of the chain named. One block for each binder: values may come before it.

Tests used:
[1] = target: human CD137 (4-1BB) on cells (human, UniProt Q07011 24-255); assay: cell-based or functional assay
Human CD3eg linker = target: T1, Human CD3eg linker (human); assay: SPR Biacore T200, 25 C, Ab captured
T1 construct: CD3 epsilon and gamma subunits joined by a 29-mer linker, C-terminal Flag-tag (in the entry); also called recombinant human CD3
T1 chain: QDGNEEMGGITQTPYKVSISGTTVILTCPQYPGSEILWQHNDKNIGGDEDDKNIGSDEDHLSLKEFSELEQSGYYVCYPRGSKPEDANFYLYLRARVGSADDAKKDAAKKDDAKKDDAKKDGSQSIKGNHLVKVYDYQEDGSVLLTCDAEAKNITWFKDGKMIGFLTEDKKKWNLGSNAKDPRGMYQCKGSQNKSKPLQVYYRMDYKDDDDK
Protocol: (§1) Anti-human Fc (GE Healthcare) was immobilized onto all flow cells of a CM4 sensor chip using amine coupling kit (GE Healthcare). […] All antibodies and analytes were prepared in ACES pH 7.4 containing 20 mM ACES, 150 mM NaCl, 0.05% Tween 20, 0.005% NaN3. Sensor surface was regenerated each cycle with 3M MgCl2.

Human CD137 ECD = target: T2, Human CD137 ECD (human); assay: SPR Biacore T200, 37 C, Ab captured
T2 construct: C-terminal His-tag and biotin acceptor peptide are in the entry; also called human CD137 extracellular domain; recombinant human CD137
T2 sequence (chain, as listed by the source limits assumed): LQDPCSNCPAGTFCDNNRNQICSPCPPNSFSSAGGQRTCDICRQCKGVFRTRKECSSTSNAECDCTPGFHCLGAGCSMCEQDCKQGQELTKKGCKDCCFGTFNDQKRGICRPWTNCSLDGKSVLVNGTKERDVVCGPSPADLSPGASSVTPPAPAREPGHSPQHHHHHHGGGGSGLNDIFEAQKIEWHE
Protocol: as §1

Chain of human CD137 (4-1BB) on cells (Q07011 24-255): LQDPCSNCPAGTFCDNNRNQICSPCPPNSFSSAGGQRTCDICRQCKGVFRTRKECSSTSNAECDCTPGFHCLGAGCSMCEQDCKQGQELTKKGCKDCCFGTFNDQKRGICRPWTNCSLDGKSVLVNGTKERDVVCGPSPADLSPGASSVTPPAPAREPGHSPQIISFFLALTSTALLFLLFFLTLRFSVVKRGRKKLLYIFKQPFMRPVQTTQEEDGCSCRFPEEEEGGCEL

B1: GPC3 ERY22-B (bispecific antibody, human IgG1, kappa, L234A L235A, N297A)
heavy 1: DIVMTQSPLSLPVTPGEPASISCRSSQSLVHSNRNTYLHWYQQKPGQAPRLLIYKVSNRFSGVPDRFSGSGSGTDFTLKISRVEAEDVGVYYCSQNTHVPPTFGQGTKLEIKSSASTKGPSVFPLAPSSKSTSGGTAALGCLVKDYFPEPVTVSWNSGALTSGVHTFPAVLQSSGLYSLSSVVTVPSSSLGTQTYICNVNHKPSNTKVDKKVEPKSCDKTHTCPPCPAPEAAGGPSVFLFPPKPKDTLMISRTPEVTCVVVDVSHEDPEVKFNWYVDGVEVHNAKTKPREEQYASTYRVVSVLTVLHQDWLNGKEYKCKVSNKALPAPIEKTISKAKGQPREPQVCTLPPSRDELTKNQVSLWCLVKGFYPSDIAVEWESNGQPENNYKTTPPVLDSDGSFFLYSKLTVDKSRWQQGNVFSCSVMHEALHNHYTQKSLSLSPHHHHHHHH
light 1: QVQLVQSGAEVKKPGASVKVSCKASGYTFTDYEMHWIRQPPGQGLEWIGAIDPKTGDTAYSQKFKGRVTLTADKSTSTAYMELSSLTSEDTAVYYCTRFYSYTYWGQGTLVTVSSASVAAPSVFIFPPSDEQLKSGTASVVCLLNNFYPREAKVQWKVDNALQSGNSQESVTEQDSKDSTYSLSSTLTLSKADYEKHKVYACEVTHQGLSSPVTKSFNRGEC
heavy 2: QVQLQQWGAGLLKPSETLSLTCAVYGGSFSGYYWSWIRQSPEKGLEWIGEINHGGYVTYNPSLESRVTISVDTSKNQFSLKLSSVTAADTAVYYCARDYGPGNYDWYFDLWGRGTLVTVSSASTKGPSVFPLAPSSKSTSGGTAALGCLVKDYFPEPVTVSWNSGALTSGVHTFPAVLQSSGLYSLSSVVTVPSSSLGTQTYICNVNHKPSNTKVDKKVEPKSCDKTHTCPPCPAPEAAGGPSVFLFPPKPKDTLMISRTPEVTCVVVDVSHEDPEVKFNWYVDGVEVHNAKTKPREEQYASTYRVVSVLTVLHQDWLNGKEYKCKVSNKALPAPIEKTISKAKGQPREPQVYTLPPSRCELTKNQVSLSCAVKGFYPSDIAVEWESNGQPENNYKTTPPVLDSDGSFFLVSKLTVDKSRWQQGNVFSCSVMHEALHNHYTQKSLSLSP
light 2: not shown
Agonistic activity compared to B, 6 ug/mL [1]: 100%
Agonistic activity compared to B, 30 ug/mL [1]: 100%
Agonistic activity compared to Ctrl, 6 ug/mL [1]: 347%
Agonistic activity compared to Ctrl, 30 ug/mL [1]: 380%
hIL-6 (pg/mL), 6 ug/mL antibody [1]: 4520 pg/mL
hIL-6 (pg/mL), 30 ug/mL antibody [1]: 4340 pg/mL

B2: GPC3 ERY22-dBBDu_186/L098 (bispecific antibody, human IgG1, kappa, L234A L235A, N297A)
heavy 1: B1 heavy 1
light 1: B1 light 1
heavy 2: QVQLVESGGGLVQPGRSLRLSCAASGFTFSNAWMHWVRQAPGKGLEWVAQIKDRSNQYATYYAPSVKGRFTISRDDSKNSIYLQMNSLKTEDTAVYYCHYVHYAQASTVLPAFGVDAWGQGTTVTVSSASTKGPSVFPLAPSSKSTSGGTAALGCLVKDYFPEPVTVSWNSGALTSGVHTFPAVLQSSGLYSLSSVVTVPSSSLGTQTYICNVNHKPSNTKVDKKVEPKSCDKTHTCPPCPAPEAAGGPSVFLFPPKPKDTLMISRTPEVTCVVVDVSHEDPEVKFNWYVDGVEVHNAKTKPREEQYASTYRVVSVLTVLHQDWLNGKEYKCKVSNKALPAPIEKTISKAKGQPREPQVYTLPPSRCELTKNQVSLSCAVKGFYPSDIAVEWESNGQPENNYKTTPPVLDSDGSFFLVSKLTVDKSRWQQGNVFSCSVMHEALHNHYTQKSLSLSPDYKDDDDK
light 2: DIVMTQSPLSLPVTPGEPASISCAASEELVHINRYIFLHWYQQKPGQAPRLLIYKVSNRFIGVPDRFSGSGSGTDFTLKISRVEAEDVGVYYCAQGSQVPFTFGQGTKLEIKRTVAAPSVFIFPPSDEQLKSGTASVVCLLNNFYPREAKVQWKVDNALQSGNSQESVTEQDSKDSTYSLSSTLTLSKADYEKHKVYACEVTHQGLSSPVTKSFNRGEC
Agonistic activity compared to B, 6 ug/mL [1]: 13.9%
Agonistic activity compared to B, 30 ug/mL [1]: 24.6%
Agonistic activity compared to Ctrl, 6 ug/mL [1]: 48.3%
Agonistic activity compared to Ctrl, 30 ug/mL [1]: 93.5%
hIL-6 (pg/mL), 6 ug/mL antibody [1]: 1500 pg/mL
hIL-6 (pg/mL), 30 ug/mL antibody [1]: 1750 pg/mL

B7: GPC3 ERY22-dBBDu_189/L119 (bispecific antibody, human IgG1, kappa, L234A L235A, N297A)
heavy 1: B1 heavy 1
light 1: B1 light 1
heavy 2: B2 heavy 2 with V48I, T108S, V109L, A112S
light 2: B2 light 2 with A24T, E27Q, Y35F
Agonistic activity compared to B, 6 ug/mL [1]: 6.92%
Agonistic activity compared to B, 30 ug/mL [1]: 20.4%
Agonistic activity compared to Ctrl, 6 ug/mL [1]: 24%
Agonistic activity compared to Ctrl, 30 ug/mL [1]: 77.3%
hIL-6 (pg/mL), 6 ug/mL antibody [1]: 1260 pg/mL
hIL-6 (pg/mL), 30 ug/mL antibody [1]: 1610 pg/mL

B9: GPC3 ERY22-dBBDu_186/L096 (bispecific antibody, human IgG1, kappa, L234A L235A, N297A)
heavy 1: B1 heavy 1
light 1: B1 light 1
heavy 2: B2 heavy 2
light 2: B2 light 2 with A24R, A25T, E27Q, S57Y, I61Q, S97T, Q98S, F101Y
Agonistic activity compared to B, 6 ug/mL [1]: 19%
Agonistic activity compared to B, 30 ug/mL [1]: 24.2%
Agonistic activity compared to Ctrl, 6 ug/mL [1]: 66.1%
Agonistic activity compared to Ctrl, 30 ug/mL [1]: 91.7%
hIL-6 (pg/mL), 6 ug/mL antibody [1]: 1680 pg/mL
hIL-6 (pg/mL), 30 ug/mL antibody [1]: 1740 pg/mL

B10: H0868L0581 (antibody, V domains shown)
VH: QVQLVESGGGLVQPGRSLRLSCAASGFKFSNVWMHWVRQAPGKGLEWVAQIKDKYNAYAAYYAPSVKGRFTISRDDSKNSIYLQMNSLKTEDTAVYYCHYVHYASASTLLPAFGVDAWGQGTTVTVSS
VL: DIVMTQSPLSLPVTPGEPASISCQPSQEVVHMNRNTYLHWYQQKPGQAPRLLIYKVSNRFPGVPDRFSGSGSGTDFTLKISRVEAEDVGVYYCAQGTSHPFTFGQGTKLEIK
Kd (Human CD3eg linker): 173 nM
Kd (Human CD137 ECD): 108 nM

B11: H1571L0581 (antibody, V domains shown)
VH: B10 VH with M34F, A60T
VL: B10 VL
Kd (Human CD3eg linker): 123 nM
Kd (Human CD137 ECD): 85 nM

B14: H0883 (antibody, V domains shown)
VH: B10 VH with K28T, V32A, Y55G, H99R
VL: B10 VL with P25A, V29L, H99V
notes: also called H0883 (CD3); H883
Kd (Human CD3eg linker): 110 nM

B15: H1579L0581 (antibody, V domains shown)
VH: B10 VH with N31H, M34F
VL: B10 VL
Kd (Human CD3eg linker): 273 nM
Kd (Human CD137 ECD): 275 nM

B16: H1572L0581 (antibody, V domains shown)
VH: B10 VH with M34F, F113E
VL: B10 VL
Kd (Human CD3eg linker): 286 nM
Kd (Human CD137 ECD): 52.1 nM

B18: H1595L0581 (antibody, V domains shown)
VH: B10 VH with V32T, V101I
VL: B10 VL
Kd (Human CD3eg linker): 57 nM
Kd (Human CD137 ECD): 195 nM

Continued, values first:

Agonistic activity compared to B, 6 ug/mL [1]: -1.27%
Agonistic activity compared to B, 30 ug/mL [1]: 6.51%
Agonistic activity compared to Ctrl, 6 ug/mL [1]: -4.41%
Agonistic activity compared to Ctrl, 30 ug/mL [1]: 24.7%
hIL-6 (pg/mL), 6 ug/mL antibody [1]: 968 pg/mL
hIL-6 (pg/mL), 30 ug/mL antibody [1]: 1130 pg/mL
B3: GPC3 ERY22-dBBDu_183/L063 (bispecific antibody, human IgG1, kappa, L234A L235A, N297A)
heavy 1: B1 heavy 1
light 1: B1 light 1
heavy 2: B2 heavy 2 with R54K, S55G, Q57A, T60A, Q105S
light 2: B2 light 2 with A24R, A25S, E27Q, I32T, Y35H, I36T, F37Y, I61P, S97T

Agonistic activity compared to B, 6 ug/mL [1]: -2.21%
Agonistic activity compared to B, 30 ug/mL [1]: 1.1%
Agonistic activity compared to Ctrl, 6 ug/mL [1]: -7.68%
Agonistic activity compared to Ctrl, 30 ug/mL [1]: 4.19%
hIL-6 (pg/mL), 6 ug/mL antibody [1]: 935 pg/mL
hIL-6 (pg/mL), 30 ug/mL antibody [1]: 944 pg/mL
B4: GPC3 ERY22-dBBDu_167/L091 (bispecific antibody, human IgG1, kappa, L234A L235A, N297A)
heavy 1: B1 heavy 1
light 1: B1 light 1
heavy 2: B2 heavy 2 with R54K, S55G, Q57L, T60A, Q105S, S107G, T108G, V109G, A112G
light 2: DIVMTQSPLSLPVTPGEPASISCSASESLLHNNRHTYLHWYQQKPGQAPRLLIYRVSNRFNGVPDRFSGSGSGTDFTLKISRVEAEDVGVYYCGQGTQVPFTFGQGTKLEIKRTVAAPSVFIFPPSDEQLKSGTASVVCLLNNFYPREAKVQWKVDNALQSGNSQESVTEQDSKDSTYSLSSTLTLSKADYEKHKVYACEVTHQGLSSPVTKSFNRGEC

Agonistic activity compared to B, 6 ug/mL [1]: 3.21%
Agonistic activity compared to B, 30 ug/mL [1]: 15.8%
Agonistic activity compared to Ctrl, 6 ug/mL [1]: 11.1%
Agonistic activity compared to Ctrl, 30 ug/mL [1]: 59.8%
hIL-6 (pg/mL), 6 ug/mL antibody [1]: 1130 pg/mL
hIL-6 (pg/mL), 30 ug/mL antibody [1]: 1450 pg/mL
B5: GPC3 ERY22-dBBDu_183/L072 (bispecific antibody, human IgG1, kappa, L234A L235A, N297A)
heavy 1: B1 heavy 1
light 1: B1 light 1
heavy 2: B2 heavy 2 with R54K, S55G, Q57A, T60A, Q105S
light 2: B2 light 2 with A24Q, E27Q, I32M, Y35N, I36T, F37Y, I61P, S97T, Q98S

Agonistic activity compared to B, 6 ug/mL [1]: 8.28%
Agonistic activity compared to B, 30 ug/mL [1]: 19.2%
Agonistic activity compared to Ctrl, 6 ug/mL [1]: 28.7%
Agonistic activity compared to Ctrl, 30 ug/mL [1]: 72.9%
hIL-6 (pg/mL), 6 ug/mL antibody [1]: 1300 pg/mL
hIL-6 (pg/mL), 30 ug/mL antibody [1]: 1570 pg/mL
B6: GPC3 ERY22-dBBDu_189/L116 (bispecific antibody, human IgG1, kappa, L234A L235A, N297A)
heavy 1: B1 heavy 1
light 1: B1 light 1
heavy 2: B2 heavy 2 with V48I, T108S, V109L, A112S
light 2: B2 light 2 with A24S, A25S, E27Q, I32A, Y35Q, F37Y, S57A, I61P, S97T

Agonistic activity compared to B, 6 ug/mL [1]: 13.2%
Agonistic activity compared to B, 30 ug/mL [1]: 19.4%
Agonistic activity compared to Ctrl, 6 ug/mL [1]: 45.8%
Agonistic activity compared to Ctrl, 30 ug/mL [1]: 73.6%
hIL-6 (pg/mL), 6 ug/mL antibody [1]: 1480 pg/mL
hIL-6 (pg/mL), 30 ug/mL antibody [1]: 1570 pg/mL
B8: GPC3 ERY22-dBBDu_186/L106 (bispecific antibody, human IgG1, kappa, L234A L235A, N297A)
heavy 1: B1 heavy 1
light 1: B1 light 1
heavy 2: B2 heavy 2
light 2: B2 light 2 with A24S, A25T, V30L, Y35F, S57A, I61M

Kd (Human CD137 ECD): 60.5 nM
B12: H1647L0581 (antibody, V domains shown)
VH: B10 VH with V32T, M34F, K54Y, A57D, F113E
VL: B10 VL
notes: also called H1647L0581 (CD137); Anti-CD137 variant

Kd (Human CD3eg linker): 156 nM
Kd (Human CD137 ECD): 70.6 nM
B13: H1573L0581 (antibody, V domains shown)
VH: B10 VH with M34F, K54Y
VL: B10 VL

Kd (Human CD3eg linker): 20.2 nM
Kd (Human CD137 ECD): 208 nM
B17: H0888L0581 (antibody, V domains shown)
VH: B10 VH with Y55W, V101I, V115I
VL: B10 VL
notes: Dual-Ig, captured by anti-human Fc; also called dBBDu183H0888/dBBDu072L0581
